Measured values reported in patent publication US20060286584A1 (University of Texas, published 2006).

Legend:
[1] = test system: T1, GST-Yki fusion protein (GST with full length Yki)
T1 sequence: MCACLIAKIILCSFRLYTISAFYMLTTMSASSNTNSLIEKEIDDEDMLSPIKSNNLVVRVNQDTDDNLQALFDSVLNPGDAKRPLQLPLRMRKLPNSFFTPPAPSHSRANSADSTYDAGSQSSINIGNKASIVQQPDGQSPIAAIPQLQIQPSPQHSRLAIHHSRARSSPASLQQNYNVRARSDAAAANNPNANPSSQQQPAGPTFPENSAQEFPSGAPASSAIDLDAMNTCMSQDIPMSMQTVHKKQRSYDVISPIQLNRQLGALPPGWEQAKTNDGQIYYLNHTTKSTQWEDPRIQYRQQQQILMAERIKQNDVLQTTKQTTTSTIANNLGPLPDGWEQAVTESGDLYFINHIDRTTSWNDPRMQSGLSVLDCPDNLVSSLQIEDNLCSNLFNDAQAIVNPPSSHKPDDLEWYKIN

[2] = molecular target: GST-Tsc1 fusion (control substrate) [GST: P08515]
[3] = molecular target: T2, GST-Yki fusion protein (GST with full length Yki)
T2 chain: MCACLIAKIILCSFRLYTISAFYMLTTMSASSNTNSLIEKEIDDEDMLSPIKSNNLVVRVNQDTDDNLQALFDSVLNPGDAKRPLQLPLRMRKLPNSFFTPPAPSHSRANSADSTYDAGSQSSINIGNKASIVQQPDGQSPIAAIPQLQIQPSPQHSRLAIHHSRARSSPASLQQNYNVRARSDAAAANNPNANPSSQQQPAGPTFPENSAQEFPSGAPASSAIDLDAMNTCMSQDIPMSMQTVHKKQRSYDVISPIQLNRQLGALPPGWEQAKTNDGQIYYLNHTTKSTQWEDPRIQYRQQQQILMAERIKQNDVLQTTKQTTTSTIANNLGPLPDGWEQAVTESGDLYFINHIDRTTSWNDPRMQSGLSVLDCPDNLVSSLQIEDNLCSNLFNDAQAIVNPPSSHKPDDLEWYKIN

V5-tagged Wts (Warts) = molecular target: T3, V5-tagged Wts (Warts) (Drosophila, UniProt Q9VA38 1-1; Q9VA38 2-1105); experiment: co-immunoprecipitation from S2 cells (anti-HA IP, anti-V5 blot)
T3 construct: Expressed in S2 cells; in the kinase assay it was immunoprecipitated with anti-V5, alone or after co-expression with Hpo-Sav; also called Lats
T3 sequence: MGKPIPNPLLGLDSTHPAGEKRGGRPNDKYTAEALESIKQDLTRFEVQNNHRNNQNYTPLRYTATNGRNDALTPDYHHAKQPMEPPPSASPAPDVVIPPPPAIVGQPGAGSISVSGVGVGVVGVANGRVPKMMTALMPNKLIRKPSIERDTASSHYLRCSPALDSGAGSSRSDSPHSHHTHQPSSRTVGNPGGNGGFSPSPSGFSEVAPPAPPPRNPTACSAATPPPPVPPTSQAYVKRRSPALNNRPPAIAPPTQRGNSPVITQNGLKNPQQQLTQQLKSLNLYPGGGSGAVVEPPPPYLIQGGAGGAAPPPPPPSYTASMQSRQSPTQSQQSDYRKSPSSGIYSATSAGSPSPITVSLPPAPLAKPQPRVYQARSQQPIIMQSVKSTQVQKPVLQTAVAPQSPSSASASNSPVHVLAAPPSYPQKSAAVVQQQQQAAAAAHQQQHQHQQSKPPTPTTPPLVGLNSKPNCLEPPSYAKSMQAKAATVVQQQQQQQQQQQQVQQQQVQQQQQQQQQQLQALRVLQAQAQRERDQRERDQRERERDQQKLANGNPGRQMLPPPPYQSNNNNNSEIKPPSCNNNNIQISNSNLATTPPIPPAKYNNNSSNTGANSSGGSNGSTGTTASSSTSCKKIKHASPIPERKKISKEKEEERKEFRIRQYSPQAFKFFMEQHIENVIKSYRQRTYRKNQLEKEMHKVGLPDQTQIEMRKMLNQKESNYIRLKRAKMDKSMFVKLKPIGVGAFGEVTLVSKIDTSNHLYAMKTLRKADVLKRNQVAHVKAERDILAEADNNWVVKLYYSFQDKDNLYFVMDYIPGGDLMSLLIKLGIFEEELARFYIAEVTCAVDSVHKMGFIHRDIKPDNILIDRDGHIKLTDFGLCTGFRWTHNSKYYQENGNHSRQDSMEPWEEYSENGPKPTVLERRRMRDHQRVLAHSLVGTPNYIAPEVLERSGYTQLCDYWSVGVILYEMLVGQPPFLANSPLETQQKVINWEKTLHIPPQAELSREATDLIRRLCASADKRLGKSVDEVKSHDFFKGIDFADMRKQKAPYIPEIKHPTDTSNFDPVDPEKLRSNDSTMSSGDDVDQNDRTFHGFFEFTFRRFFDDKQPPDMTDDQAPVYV
Source text: HA-tagged wildtype Yki (Yki, lane 1), a mutant Yki carrying point mutations in the WW domains (Yki^{W292A P295A W361A P364A}, abbreviated as Yki^WM in lane 2), or a truncated Yki containing only the N-terminal half of the protein (Yki^N, lane 3) were co-expressed with V5-tagged Wts. α-HA immunoprecipitates were probed with and α-V5 antibody to detect physical interaction between the Yki variants and Wts. Note that wildtype Yki, but not Yki^WM or Yki^N, could immunoprecipitate Wts.
HA-tagged Yki was constructed by adding a C-terminal HA epitope ([…]) to Yki using the pAc5.1/V5-HisB vector (Invitrogen). N-terminal V5-tagged Wts was constructed in the same vector by adding a V5 tag ([…]) between the first and second codon of Wts. Point mutations of Yki and Wts were introduced using the QuikChange site-directed mutagenesis kit (Stratagene). Myc-tagged Hpo and Flag-tagged Sav constructs have been described previously (Wu et al., 2003). The pGEX4T-1 vector was used to express a fusion of GST with full length Yki the GST-Yki preparation contained two Yki-related bands, with the upper band migrating at the expected molecular weight. It also contained a contaminating band (FIG. 6C). The Yki-related bands, but not the contaminating band, were diminished by thrombin, which cleaves the GST-Yki fusion at the junction of GST and Yki (data not shown). […]

GST-Tsc1 fusion (control substrate) [GST: P08515], sequence (P08515 whole entry, looked up, the tested form may be a part): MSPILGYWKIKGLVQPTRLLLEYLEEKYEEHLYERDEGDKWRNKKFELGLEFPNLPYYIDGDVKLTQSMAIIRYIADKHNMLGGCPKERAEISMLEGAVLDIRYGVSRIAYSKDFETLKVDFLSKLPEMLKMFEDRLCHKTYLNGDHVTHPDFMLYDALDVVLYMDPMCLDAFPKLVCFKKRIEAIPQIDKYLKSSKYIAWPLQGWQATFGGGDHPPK

V5-tagged kinase-dead Wts^K743R
in vitro kinase activity (32P), kinase-dead Wts co-expressed with Hpo-Sav and immunoprecipitated [1]: a kinase dead mutation of Wts, WtsK^743R, completely abolished the in vitro kinase activity of Wts towards Yki

B1: V5-tagged Wts (Warts) (protein)
chain: MGKPIPNPLLGLDSTHPAGEKRGGRPNDKYTAEALESIKQDLTRFEVQNNHRNNQNYTPLRYTATNGRNDALTPDYHHAKQPMEPPPSASPAPDVVIPPPPAIVGQPGAGSISVSGVGVGVVGVANGRVPKMMTALMPNKLIRKPSIERDTASSHYLRCSPALDSGAGSSRSDSPHSHHTHQPSSRTVGNPGGNGGFSPSPSGFSEVAPPAPPPRNPTACSAATPPPPVPPTSQAYVKRRSPALNNRPPAIAPPTQRGNSPVITQNGLKNPQQQLTQQLKSLNLYPGGGSGAVVEPPPPYLIQGGAGGAAPPPPPPSYTASMQSRQSPTQSQQSDYRKSPSSGIYSATSAGSPSPITVSLPPAPLAKPQPRVYQARSQQPIIMQSVKSTQVQKPVLQTAVAPQSPSSASASNSPVHVLAAPPSYPQKSAAVVQQQQQAAAAAHQQQHQHQQSKPPTPTTPPLVGLNSKPNCLEPPSYAKSMQAKAATVVQQQQQQQQQQQQVQQQQVQQQQQQQQQQLQALRVLQAQAQRERDQRERDQRERERDQQKLANGNPGRQMLPPPPYQSNNNNNSEIKPPSCNNNNIQISNSNLATTPPIPPAKYNNNSSNTGANSSGGSNGSTGTTASSSTSCKKIKHASPIPERKKISKEKEEERKEFRIRQYSPQAFKFFMEQHIENVIKSYRQRTYRKNQLEKEMHKVGLPDQTQIEMRKMLNQKESNYIRLKRAKMDKSMFVKLKPIGVGAFGEVTLVSKIDTSNHLYAMKTLRKADVLKRNQVAHVKAERDILAEADNNWVVKLYYSFQDKDNLYFVMDYIPGGDLMSLLIKLGIFEEELARFYIAEVTCAVDSVHKMGFIHRDIKPDNILIDRDGHIKLTDFGLCTGFRWTHNSKYYQENGNHSRQDSMEPWEEYSENGPKPTVLERRRMRDHQRVLAHSLVGTPNYIAPEVLERSGYTQLCDYWSVGVILYEMLVGQPPFLANSPLETQQKVINWEKTLHIPPQAELSREATDLIRRLCASADKRLGKSVDEVKSHDFFKGIDFADMRKQKAPYIPEIKHPTDTSNFDPVDPEKLRSNDSTMSSGDDVDQNDRTFHGFFEFTFRRFFDDKQPPDMTDDQAPVYV
in vitro kinase activity (32P), Wts co-expressed with Hpo-Sav and immunoprecipitated [2]: Wts displayed specific kinase activity towards Yki (FIG. 6C, lane 2) but not a control substrate (FIG. 6C, lane 4)
in vitro kinase activity (32P), Wts co-expressed with Hpo-Sav and immunoprecipitated [3]: When co-expressed with Hpo-Sav, however, Wts displayed specific kinase activity towards Yki

B2: HA-tagged Yki^W292A P295A W361A P364A (other)
chain: MCACLIAKIILCSFRLYTISAFYMLTTMSASSNTNSLIEKEIDDEDMLSPIKSNNLVVRVNQDTDDNLQALFDSVLNPGDAKRPLQLPLRMRKLPNSFFTPPAPSHSRANSADSTYDAGSQSSINIGNKASIVQQPDGQSPIAAIPQLQIQPSPQHSRLAIHHSRARSSPASLQQNYNVRARSDAAAANNPNANPSSQQQPAGPTFPENSAQEFPSGAPASSAIDLDAMNTCMSQDIPMSMQTVHKKQRSYDVISPIQLNRQLGALPPGWEQAKTNDGQIYYLNHTTKSTQAEDARIQYRQQQQILMAERIKQNDVLQTTKQTTTSTIANNLGPLPDGWEQAVTESGDLYFINHIDRTTSANDARMQSGLSVLDCPDNLVSSLQIEDNLCSNLFNDAQAIVNPPSSHKPDDLEWYKINYPYDVPDYA
notes: Expressed in S2 cells; also called Yki^WM; mutant Yki carrying point mutations in the WW domains
binding result (V5-tagged Wts (Warts)): no binding
